Assay results published in US20150202273A1 (SHENZHEN INNOVATION IMMUNOTECHNOLOGY, published 2015).

target: HLA-A2 molecules on T2 cells (human); test: cell-based or functional assay

Binder	IFN-γ release (ELISA) by expanded peptide-specific T cells in response to T2 cells pre-loaded with titrated peptide (0-20 µg/ml) [µg/mL]
WLAFPLCSL [PSGR4]	5
ILANIYLLV [PSGR3]	5
VILANIYLLV [PSGR14]	5
